This note sets out measurements from patent US20220033483A1 (GUAGNDONG FEIPENG BIOLOGICAL, published 2022).

The Kd is the constant that tells how readily two partners part at equilibrium. One may read the koff as the rate constant with which the complex falls apart. One may read the kon as the rate constant with which the complex forms.

The test concerns the target T1, cTnI quality control product recombinant protein (human, UniProt P19429 1-210, limits assumed).
T1 construct: the assay paragraphs only say cTnI; also called cardiac troponin I; cTnI antigen
Nature of the test: AMC biosensor, antibody on sensor. How it is done: Operating process: it is equilibrated in Buffer 1 (PBST) for 60 s, the antibody is immobilized in an antibody solution for 300 s, incubated in Buffer 2 (PBST) for 180 s, bound in antigen solution for 420 s, dissociated in the Buffer 2 for 1200 s, 10 mM of GLY solution with pH 1.69 and Buffer 3 are used for sensor regeneration, and data is output.

T1 sequence (P19429 whole entry): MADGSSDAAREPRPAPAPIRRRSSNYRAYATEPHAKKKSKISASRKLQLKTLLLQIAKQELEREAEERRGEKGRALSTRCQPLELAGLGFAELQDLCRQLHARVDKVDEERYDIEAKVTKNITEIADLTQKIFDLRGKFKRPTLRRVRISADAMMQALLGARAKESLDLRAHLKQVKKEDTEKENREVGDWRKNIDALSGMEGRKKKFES

B1: WT 1-4 (antibody, V domains shown)
VH: QVQLQQSGTELAKPGASVKFSCKASDYTFSTYWMYWIKQRPGQGLEWIGYINPSSGHTEYNQRFKDKATLTADKSSSTAYMQLNSLTSEDSAVYYCARKYYGPFAMDYWGQGTSVTVSS
VL: EIFLTQSPAIMSASPGEKVTMTCSASTTVSYAHWYQQKSGTSPKRWLYDSSKIASGIPVRFSGSGSGTSYSLTISSMEAEDAATYYCQNWSTNPYTFGGGTKLEIKR
For B1, the Kd is 31.8 nM, the koff amounted to 0.000922 s⁻¹ and the kon was 29000 M⁻¹ s⁻¹.

B2: Mutation 1-36 (antibody, V domains shown)
VH: QVQLQQSGTELAKPGASVKFSCKASGYTFSTYWMYWIKQRPGQGLEWIGYINPSSGHTDYNQRFKDKATLTADKSSSTAYMQLNSLTSEDSAVYYCARRYWGPFGMDYWGQGTSVTVSS
VL: EIFLTQSPAIMSASPGEKVTMTCSASSTVSYVHWYQQKSGTSPKRWLYDTSKIASGIPVRFSGSGSGTSYSLTISSMEAEDAATYYCQQWSTNPYTFGGGTKLEIKR
Take B2: the Kd was 5.49 nM, the koff was found to be 9.5e-05 s⁻¹ and the kon was 17300 M⁻¹ s⁻¹.

B3: Mutation 1-4 (antibody, V domains shown)
VH: QVQLQQSGTELAKPGASVKFSCKASGYTFSTYWMYWIKQRPGQGLEWIGYINPSSGHTDYNQRFKDKATLTADKSSSTAYMQLNSLTSEDSAVYYCARKYYGPFGMDYWGQGTSVTVSS
VL: EIFLTQSPAIMSASPGEKVTMTCSASTTVSYVHWYQQKSGTSPKRWLYDTSKIASGIPVRFSGSGSGTSYSLTISSMEAEDAATYYCQQWSTNPYTFGGGTKLEIKR
As to B3, the Kd came to 5.72 nM, the koff turned out to be 0.000211 s⁻¹ and the kon is 36900 M⁻¹ s⁻¹.

B4: Mutation 1-9 (antibody, V domains shown)
VH: QVQLQQSGTELAKPGASVKFSCKASGYTFSSYWMYWIKQRPGQGLEWIGYINPSSGHTDYNQRFKDKATLTADKSSSTAYMQLNSLTSEDSAVYYCARKYFGPFGMDYWGQGTSVTVSS
VL: EIFLTQSPAIMSASPGEKVTMTCSASSSVSYVHWYQQKSGTSPKRWIYDTSKIASGIPVRFSGSGSGTSYSLTISSMEAEDAATYYCQQWSTQPYTFGGGTKLEIKR
Consider B4, for which the Kd was determined as 0.813 nM, the koff is 2.45e-05 s⁻¹ and the kon was found to be 30100 M⁻¹ s⁻¹.

B5: Mutation 1-32 (antibody, V domains shown)
VH: QVQLQQSGTELAKPGASVKFSCKASGYTFSTYWMYWIKQRPGQGLEWIGYLNPSSGHTDYNQRFKDKATLTADKSSSTAYMQLNSLTSEDSAVYYCARKYWGPFGMDYWGQGTSVTVSS
VL: EIFLTQSPAIMSASPGEKVTMTCSASSTVSYVHWYQQKSGTSPKRWLYDTSKIASGIPVRFSGSGSGTSYSLTISSMEAEDAATYYCQQWSSNPYTFGGGTKLEIKR
B5: the Kd worked out at 0.548 nM, the off-rate constant (koff) was 1.78e-05 s⁻¹ and the kon came to 32400 M⁻¹ s⁻¹.

B6: Mutation 1-24 (antibody, V domains shown)
VH: QVQLQQSGTELAKPGASVKFSCKASGYTFSTYWMYWIKQRPGQGLEWIGYINPSTGHTDYNQKFKDKATLTADKSSSTAYMQLNSLTSEDSAVYYCARRYFGPFGMDYWGQGTSVTVSS
VL: EIFLTQSPAIMSASPGEKVTMTCSASSTVSYVHWYQQKSGTSPKRWLYDTSKIASGIPVRFSGSGSGTSYSLTISSMEAEDAATYYCQQWSSNPYTFGGGTKLEIKR
As to B6, the dissociation constant (Kd) stood at 9.29 nM, the koff is 0.000173 s⁻¹ and the kon stood at 18600 M⁻¹ s⁻¹.

B7: Mutation 1-44 (antibody, V domains shown)
VH: QVQLQQSGTELAKPGASVKFSCKASGYTFSTYWMYWIKQRPGQGLEWIGYINPSSGHTDYNQRFKDKATLTADKSSSTAYMQLNSLTSEDSAVYYCARKYYGPFGMDYWGQGTSVTVSS
VL: EIFLTQSPAIMSASPGEKVTMTCSASSSVSYVHWYQQKSGTSPKRWIYDTSKIASGIPVRFSGSGSGTSYSLTISSMEAEDAATYYCQQWSTNPYTFGGGTKLEIKR
As for B7, the Kd came out at 4.18 nM, the koff stood at 6.9e-05 s⁻¹ and the kon was 16500 M⁻¹ s⁻¹.

B8: Mutation 1-28 (antibody, V domains shown)
VH: QVQLQQSGTELAKPGASVKFSCKASGYTFSTYWMYWIKQRPGQGLEWIGYLNPSTGHTDYNQRFKDKATLTADKSSSTAYMQLNSLTSEDSAVYYCARKYYGPFGMDYWGQGTSVTVSS
VL: EIFLTQSPAIMSASPGEKVTMTCSASTTVSYVHWYQQKSGTSPKRWLYDTSKIASGIPVRFSGSGSGTSYSLTISSMEAEDAATYYCQQWSSNPYTFGGGTKLEIKR
As for B8, the Kd is 0.941 nM, the koff was found to be 1.39e-05 s⁻¹ and the kon stood at 14800 M⁻¹ s⁻¹.

B9: Mutation 1-12 (antibody, V domains shown)
VH: QVQLQQSGTELAKPGASVKFSCKASGYTFSTYWMYWIKQRPGQGLEWIGYLNPSTGHTDYNQRFKDKATLTADKSSSTAYMQLNSLTSEDSAVYYCARRYFGPFGMDYWGQGTSVTVSS
VL: EIFLTQSPAIMSASPGEKVTMTCSASTTVSYVHWYQQKSGTSPKRWLYDTSKIASGIPVRFSGSGSGTSYSLTISSMEAEDAATYYCQQWSTQPYTFGGGTKLEIKR
Take B9: the Kd worked out at 3.29 nM, the off-rate (koff) turned out to be 6.88e-05 s⁻¹ and the kon turned out to be 20900 M⁻¹ s⁻¹.

B10: Mutation 1-25 (antibody, V domains shown)
VH: QVQLQQSGTELAKPGASVKFSCKASGYTFSSYWMYWIKQRPGQGLEWIGYINPSSGHTDYNQRFKDKATLTADKSSSTAYMQLNSLTSEDSAVYYCARRYYGPFGMDYWGQGTSVTVSS
VL: EIFLTQSPAIMSASPGEKVTMTCSASTSVSYVHWYQQKSGTSPKRWIYDTSKIASGIPVRFSGSGSGTSYSLTISSMEAEDAATYYCQQWSSNPYTFGGGTKLEIKR
Regarding B10, the Kd is 1.7 nM, the koff came out at 6.15e-05 s⁻¹ and the kon came out at 36200 M⁻¹ s⁻¹.

B11: Mutation 1-16 (antibody, V domains shown)
VH: QVQLQQSGTELAKPGASVKFSCKASGYTFSTYWMYWIKQRPGQGLEWIGYINPSSGHTDYNQKFKDKATLTADKSSSTAYMQLNSLTSEDSAVYYCARKYYGPFGMDYWGQGTSVTVSS
VL: EIFLTQSPAIMSASPGEKVTMTCSASTTVSYVHWYQQKSGTSPKRWLYDTSKIASGIPVRFSGSGSGTSYSLTISSMEAEDAATYYCQQWSTQPYTFGGGTKLEIKR
Regarding B11, the dissociation constant Kd stood at 1.39 nM, the koff worked out at 6.64e-05 s⁻¹ and the kon came out at 47700 M⁻¹ s⁻¹.

B12: Mutation 1-34 (antibody, V domains shown)
VH: QVQLQQSGTELAKPGASVKFSCKASGYTFTSYWMYWIKQRPGQGLEWIGYINPSSGHTDYNQKFKDKATLTADKSSSTAYMQLNSLTSEDSAVYYCARKYYGPFGMDYWGQGTSVTVSS
VL: EIFLTQSPAIMSASPGEKVTMTCSASTTVSYVHWYQQKSGTSPKRWLYDTSKLASGIPVRFSGSGSGTSYSLTISSMEAEDAATYYCQQWSSNPYTFGGGTKLEIKR
For B12, the Kd was 0.404 nM and the koff is 1.92e-05 s⁻¹.

B13: Mutation 1-22 (antibody, V domains shown)
VH: QVQLQQSGTELAKPGASVKFSCKASGYTFTTYWMYWIKQRPGQGLEWIGYLNPSSGHTDYNQKFKDKATLTADKSSSTAYMQLNSLTSEDSAVYYCARKYYGPFGMDYWGQGTSVTVSS
VL: EIFLTQSPAIMSASPGEKVTMTCSASTTVSYVHWYQQKSGTSPKRWLYDTSKLASGIPVRFSGSGSGTSYSLTISSMEAEDAATYYCQQWSSQPYTFGGGTKLEIKR
As to B13, the Kd was 1.73 nM, the koff amounted to 8.25e-05 s⁻¹ and the kon came out at 47800 M⁻¹ s⁻¹.

B14: Mutation 1-1 (antibody, V domains shown)
VH: QVQLQQSGTELAKPGASVKFSCKASGYTFSTYWMYWIKQRPGQGLEWIGYINPSTGHTDYNQKFKDKATLTADKSSSTAYMQLNSLTSEDSAVYYCARRYYGPFGMDYWGQGTSVTVSS
VL: EIFLTQSPAIMSASPGEKVTMTCSASSSVSYVHWYQQKSGTSPKRWIYDTSKIASGIPVRFSGSGSGTSYSLTISSMEAEDAATYYCQQWSTNPYTFGGGTKLEIKR
Take B14: the Kd was 7.73 nM, the koff came to 0.000118 s⁻¹ and the on-rate (kon) was 15300 M⁻¹ s⁻¹.

B15: Mutation 1-18 (antibody, V domains shown)
VH: QVQLQQSGTELAKPGASVKFSCKASGYTFTTYWMYWIKQRPGQGLEWIGYINPSSGHTDYNQRFKDKATLTADKSSSTAYMQLNSLTSEDSAVYYCARRYFGPFGMDYWGQGTSVTVSS
VL: EIFLTQSPAIMSASPGEKVTMTCSASTTVSYVHWYQQKSGTSPKRWLYDTSKLASGIPVRFSGSGSGTSYSLTISSMEAEDAATYYCQQWSSQPYTFGGGTKLEIKR
For the molecule B15, the Kd turned out to be 2.3 nM, the koff stood at 8.41e-05 s⁻¹ and the kon worked out at 36500 M⁻¹ s⁻¹.

B16: Mutation 1-8 (antibody, V domains shown)
VH: QVQLQQSGTELAKPGASVKFSCKASGYTFSTYWMYWIKQRPGQGLEWIGYINPSTGHTDYNQKFKDKATLTADKSSSTAYMQLNSLTSEDSAVYYCARRYWGPFGMDYWGQGTSVTVSS
VL: EIFLTQSPAIMSASPGEKVTMTCSASTTVSYVHWYQQKSGTSPKRWLYDTSKIASGIPVRFSGSGSGTSYSLTISSMEAEDAATYYCQQWSTQPYTFGGGTKLEIKR
Turning to B16, the Kd turned out to be 9.35 nM, the koff is 0.000105 s⁻¹ and the kon turned out to be 11200 M⁻¹ s⁻¹.

B17: Mutation 1-40 (antibody, V domains shown)
VH: QVQLQQSGTELAKPGASVKFSCKASGYTFSTYWMYWIKQRPGQGLEWIGYLNPSSGHTDYNQRFKDKATLTADKSSSTAYMQLNSLTSEDSAVYYCARRYFGPFGMDYWGQGTSVTVSS
VL: EIFLTQSPAIMSASPGEKVTMTCSASSTVSYVHWYQQKSGTSPKRWLYDTSKIASGIPVRFSGSGSGTSYSLTISSMEAEDAATYYCQQWSTNPYTFGGGTKLEIKR
With B17, the Kd was determined as 4.16 nM, the koff is 0.000138 s⁻¹ and the kon stood at 33200 M⁻¹ s⁻¹.

B18: Mutation 1-10 (antibody, V domains shown)
VH: QVQLQQSGTELAKPGASVKFSCKASGYTFTSYWMYWIKQRPGQGLEWIGYINPSTGHTDYNQRFKDKATLTADKSSSTAYMQLNSLTSEDSAVYYCARKYYGPFGMDYWGQGTSVTVSS
VL: EIFLTQSPAIMSASPGEKVTMTCSASSTVSYVHWYQQKSGTSPKRWLYDTSKLASGIPVRFSGSGSGTSYSLTISSMEAEDAATYYCQQWSTQPYTFGGGTKLEIKR
As for B18, the Kd came out at 4.19 nM, the off-rate (koff) worked out at 0.000155 s⁻¹ and the kon is 37000 M⁻¹ s⁻¹.
